Residue numbers refer to the chain shown, from its start. Names and notes keep the numbering of the source.
Key:
[1] = target: T1, human TIGIT on cells (Jurkat-hTIGIT, human primary T cells) (human, UniProt Q495A1 22-244); assay: cell-based or functional assay
T1 sequence (looked up): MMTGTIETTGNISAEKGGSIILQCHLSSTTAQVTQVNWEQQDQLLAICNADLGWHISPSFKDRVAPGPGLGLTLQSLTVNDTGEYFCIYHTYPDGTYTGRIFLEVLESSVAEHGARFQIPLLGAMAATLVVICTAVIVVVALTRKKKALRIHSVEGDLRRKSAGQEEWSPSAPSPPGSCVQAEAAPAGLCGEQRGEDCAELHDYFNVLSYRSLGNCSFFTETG

[2] = target: T1, human TIGIT on cells (Jurkat-hTIGIT, …); assay: cell-based or functional assay; remark: listed apart in the source
[3] = target: T2, mouse TIGIT on cells (Jurkat-mTIGIT) (mouse, UniProt P86176 29-249); assay: flow cytometry on Jurkat-mTIGIT, 100 nM antibody, vs untransfected Jurkat
T2 construct: whole, on cells
T2 sequence (looked up): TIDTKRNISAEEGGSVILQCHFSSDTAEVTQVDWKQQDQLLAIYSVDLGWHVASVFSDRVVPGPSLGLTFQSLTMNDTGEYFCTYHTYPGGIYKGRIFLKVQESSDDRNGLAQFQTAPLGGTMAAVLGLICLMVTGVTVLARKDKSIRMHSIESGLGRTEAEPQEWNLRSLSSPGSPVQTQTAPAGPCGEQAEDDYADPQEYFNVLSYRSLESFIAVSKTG
Protocol: (§1) Antibodies were incubated with the cells for 20 min at 4° C. in FACS buffer. […] Geometric mean fluorecence intensity was analysed using LSR BD Fortessa. Cell binding was recorded as the median florescence intensity of PE on the transfected line compared to the un-transfected line for each antibody (Table 3).

[4] = target: T1, human TIGIT on cells (Jurkat-hTIGIT, …); assay: flow cytometry on Jurkat-hTIGIT, 100 nM antibody, vs untransfected Jurkat
Protocol: as §1

[5] = target: T1, human TIGIT on cells (Jurkat-hTIGIT, …); assay: cell-based or functional assay; remark: listed apart in the source
[6] = target: T2, mouse TIGIT on cells (Jurkat-mTIGIT); assay: cell-based or functional assay
[7] = target: T3, anti-idiotypic antibody clone 32869; assay: MSD electrochemiluminescence bridging ELISA: anti-idiotypic antibody 32869 coated on the plate, clone 31282 spiked in human serum, detection with Sulfo-TAG 32869
T3 construct: Human IgG1 from HEK293, selected from the HuCAL library
Text: The ELISA assay is based on the Meso Scale Discovery (MSD) Platform using electrochemiluminescence detection technology. […] A voltage is applied to the plate electrodes, causing the bound Sulfo-TAG to emit light via electrochemical stimulation.

T3 sequence (VH, as listed by the source, chain 1 of 2): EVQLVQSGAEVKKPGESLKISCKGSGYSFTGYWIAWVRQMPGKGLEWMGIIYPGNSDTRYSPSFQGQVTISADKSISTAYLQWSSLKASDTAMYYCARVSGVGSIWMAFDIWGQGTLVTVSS
T3 sequence (VL, as listed by the source, chain 2 of 2): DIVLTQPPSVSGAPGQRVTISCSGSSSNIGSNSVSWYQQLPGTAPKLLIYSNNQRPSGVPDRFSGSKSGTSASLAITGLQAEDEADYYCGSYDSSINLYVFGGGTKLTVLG

B1: comparative anti-TIGIT antibody 4.1D3.Q1E (antibody, human IgG1, V domains shown)
VH: EVQLQQSGPGLVKPSQTLSLTCAISGDSVSSNSAAWNWIRQSPSRGLEWLGKTYYRFKWYSDYAVSVKGRITINPDTSKNQFSLQLNSVTPEDTAVFYCTRESTTYDLLAGPFDYWGQGTLVTVSS
VL: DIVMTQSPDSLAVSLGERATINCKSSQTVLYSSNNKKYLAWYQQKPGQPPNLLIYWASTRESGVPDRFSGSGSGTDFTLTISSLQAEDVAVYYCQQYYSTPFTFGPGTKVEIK
EC50 (nM), luciferase, Jurkat-hTIGIT + CHO-CD155 [1]: 10.3 nM | luciferase induction over isotype control (fold change), Jurkat-hTIGIT + CHO-CD155 [1]: 5.8 fold | EC50 (nM), IFNg, human primary CD8+ T cells + CHO-CD155 [2]: 1.43 nM | IFNg induction over isotype control (fold change), human primary CD8+ T cells + CHO-CD155 [2]: 2.9 fold

B2: anti-TIGIT antibody clone 29478 (antibody, V domains shown)
VH: EVQLVESGGGVVQPGRSLRLSCAASGFTFESYGMVWVRQAPGKGLEWVASILYDGSNRYYADSVKGRFTVSRDNSKNTLYLQMNSLRAEDTAVYYCARVSYYYDSVELRWAEYFQHWGQGTLVTVSS
VL: EIVLTQSPATLSLSPGERATLSCRASQSVSSYLAWYQQKPGQAPRLLIYDASKRATGIPARFSGSGSGTDFTLTISSLEPEDFAVYYCQQVHNFPLTFGGGTKVEIK
notes: human IgG; Fab for 'Fab KD' columns
Cell binding FON (Fold Over Negative) [3]: 500 fold over negative | Cell binding FON (Fold Over Negative) [4]: 182 fold over negative | luciferase induction over isotype control (fold change), Jurkat-hTIGIT + CHO-TCR-CD155 bioassay, 133 nM antibody [5]: 3.57 fold

B3: anti-TIGIT antibody clone 26521 (antibody, V domains shown)
VH: QVQLVQSGAEVKKPGSSVKVSCKASGGTFSSYAISWVRQAPGQGLEWMGGIIPIFGTANYAQKFQGRVTITADESTSTAYMELSSLRSEDTAVYYCARLHLGSSAYYGMDVWGQGTTVTVSS
VL: DIQMTQSPSSLSASVGDRVTITCRASQSISSYLNWYQQKPGKAPKLLIYAASSLQSGVPSRFSGSGSGTDFTLTISSLQPEDFATYYCQQRYVFPPTFGGGTKVEIK
notes: Naive parent clone, VH1-69; human IgG; Fab for 'Fab KD' columns
Cell binding FON (Fold Over Negative) [3]: 218 fold over negative | Cell binding FON (Fold Over Negative) [4]: 146 fold over negative | luciferase induction over isotype control (fold change), Jurkat-hTIGIT + CHO-TCR-CD155 bioassay, 133 nM antibody [5]: 2.66 fold

B4: anti-TIGIT antibody clone 29513 (antibody, V domains shown)
VH: B3 VH with S30Q, S31N, G50V, I52V, I70V, S103Q, S104K
VL: B3 VL
notes: as for B2
Cell binding FON (Fold Over Negative) [3]: 406 fold over negative | Cell binding FON (Fold Over Negative) [4]: 156 fold over negative | luciferase induction over isotype control (fold change), Jurkat-hTIGIT + CHO-TCR-CD155 bioassay, 133 nM antibody [5]: 3.26 fold

B5: comparative anti-TIGIT antibody 22G2 (antibody, human IgG1, V domains shown)
VH: QVHLQESGPGLVKPSETLSLTCTVSGGSVSSGIYYWSWIRQPPGKGLEWIGYIYYSGSTNYNPSLKSRVTISVDTSKNQFSLKLSSVTAADTAVYYCARDYYVSGNYYNVDYYFFGVDVWGQGTTVTVSS
VL: EIVLTQSPATLSLSPGERATLSCRASQSVSSYLAWYQQKPGQAPRLLIYDASNRATGIPARFSGSGSGTDFTLTISSLEPEDFAVYYCQQRSNWPPLFTFGPGTKVDIK
EC50 (nM), luciferase, Jurkat-hTIGIT + CHO-CD155 [1]: 5.2 nM | luciferase induction over isotype control (fold change), Jurkat-hTIGIT + CHO-CD155 [1]: 5.3 fold | EC50 (nM), IFNg, human primary CD8+ T cells + CHO-CD155 [2]: 0.41 nM | IFNg induction over isotype control (fold change), human primary CD8+ T cells + CHO-CD155 [2]: 1.5 fold

B6: comparative anti-TIGIT antibody 31C6 (MEB125.31C6.A1.205 VH4/VL1) (antibody, human IgG1, V domains shown)
VH: EVQLVQSGAEVKKPGASVKVSCKASGYTFSSYVMHWVRQAPGQGLEWIGYIDPYNDGAKYAQKFQGRVTLTSDKSTSTVYMELSSLRSEDTAVYYCARGGPYGWYFDVWGQGTTVTVSS
VL: DIQMTQSPSSLSASVGDRVTITCRASEHIYSYLSWYQQKPGKAPKLLIYNAKTLAEGVPSRFSGSGSGTDFTLTISSLQPEDFATYYCQHHFGSPLTFGQGTRLEIK
EC50 (nM), luciferase, Jurkat-hTIGIT + CHO-CD155 [1]: 5.3 nM | luciferase induction over isotype control (fold change), Jurkat-hTIGIT + CHO-CD155 [1]: 6.7 fold | EC50 (nM), IFNg, human primary CD8+ T cells + CHO-CD155 [2]: 0.3 nM | IFNg induction over isotype control (fold change), human primary CD8+ T cells + CHO-CD155 [2]: 1.6 fold

B7: anti-TIGIT antibody clone 26486 (antibody, V domains shown)
VH: QVQLQESGPGLVKPSETLSLTCAVSGYSISSGYYWAWIRQPPGKGLEWIGSIYHSGSTYYNPSLKSRVTISVDTSKNQFSLKLSSVTAADTAVYYCAIEGANYYDFGYVAFDIWGQGTMVTVSS
VL: EIVMTQSPATLSVSPGERATLSCRASQSVSSNLAWYQQKPGQAPRLLIYGASTRATGIPARFSGSGSGTEFTLTISSLQSEDFAVYYCQQSPPWPRTFGGGTKVEIK
notes: Naive parent clone, VH4-0B; human IgG; Fab for 'Fab KD' columns
Cell binding FON (Fold Over Negative) [3]: 199 fold over negative | Cell binding FON (Fold Over Negative) [4]: 143 fold over negative | luciferase induction over isotype control (fold change), Jurkat-hTIGIT + CHO-TCR-CD155 bioassay, 133 nM antibody [5]: 1.9 fold

B8: anti-TIGIT antibody clone 29499 (antibody, V domains shown)
VH: QLQLQESGPGLVKPSETLSLTCTVSGGSISSSRYYWAWIRQPPGKGLEWIGSIGTSGSTYYNPSLKSRVTISVDTSKNQFSLKLSSVTATDTAVYYCAIEGANFRDFGYVAFDIWGQGTMVTVSS
VL: B7 VL
notes: as for B2
Cell binding FON (Fold Over Negative) [3]: 541 fold over negative | Cell binding FON (Fold Over Negative) [4]: 164 fold over negative | luciferase induction over isotype control (fold change), Jurkat-hTIGIT + CHO-TCR-CD155 bioassay, 133 nM antibody [5]: 3.68 fold

B9: anti-TIGIT antibody clone 29494 (antibody, V domains shown)
VH: B8 VH with L2V, S32G, R33S, W36L, G54F, T55R, K66E, T90A, R105K
VL: B7 VL
notes: as for B2
Cell binding FON (Fold Over Negative) [3]: 511 fold over negative | Cell binding FON (Fold Over Negative) [4]: 164 fold over negative | luciferase induction over isotype control (fold change), Jurkat-hTIGIT + CHO-TCR-CD155 bioassay, 133 nM antibody [5]: 3.42 fold

B10: anti-TIGIT antibody clone 32931 (antibody, V domains shown)
VH: B8 VH with S32G, R33S, W36L, G54F, T55R, K66E, T90A, R105K, M120T
VL: B7 VL with Q27K, G50F, S91T, P92S
notes: L1/L2/L3 optimised from 31288; human IgG
Cell binding FON (Fold Over Negative) [4]: 741 fold over negative

B11: anti-TIGIT antibody clone 32919 (antibody, V domains shown)
VH: B8 VH with S32G, R33S, W36L, G54F, T55R, K66E, T90A, R105K, M120T
VL: B2 VL with K53N, V91E, H92N, N93P, F94R, L96R
notes: as for B10
Cell binding FON (Fold Over Negative) [4]: 680 fold over negative

B12: anti-TIGIT antibody clone 26493 (antibody, V domains shown)
VH: EVQLVESGGGLVQPGRSLRLSCAASGFTFGDYAMHWVRQAPGKGLEWVSGITWNSGSIGYADSVKGRFTISRDNAKNSLYLQMNSLRAEDTALYYCAKPVPKSRGLDVWGQGTMVTVSS
VL: DIQLTQSPSSVSASVGDRVTITCRASQGISSWLAWYQQKPGKAPKLLIYGASSLQSGVPSRFSGSGSGTDFTLTISSLQPEDFATYYCQQAFYLPWTFGGGTKVEIK
notes: Naive parent clone, VH3-09; human IgG; Fab for 'Fab KD' columns; mouse IgG2a/IgG1 versions only used in vivo / ex vivo; also called surrogate anti-TIGIT antagonistic antibody
Cell binding FON (Fold Over Negative) [3]: 463 fold over negative | IFNg production by mouse OT-1 CD8+ T cells co-cultured with OVA-pulsed PanO2 cells, 133 nM antibody [6]: ~2 fold | Cell binding FON (Fold Over Negative) [4]: 80 fold over negative | luciferase induction over isotype control (fold change), Jurkat-hTIGIT + CHO-TCR-CD155 bioassay, 133 nM antibody [5]: 0.96 fold

B13: anti-TIGIT antibody clone 29523 (antibody, V domains shown)
VH: EVQLVESGGGVVQPGRSLRLSCAASGFTFGSYYMHWVRQAPGKGLEWVAVIWPDGSNKLYADSVKGRFTISRDNSKNTLYLQMNSLRAEDTALYYCAKPVPKSRALDVWGQGTMVTVSS
VL: B12 VL
notes: as for B2
Cell binding FON (Fold Over Negative) [3]: 502 fold over negative | Cell binding FON (Fold Over Negative) [4]: 150 fold over negative | luciferase induction over isotype control (fold change), Jurkat-hTIGIT + CHO-TCR-CD155 bioassay, 133 nM antibody [5]: 2.4 fold

B14: anti-TIGIT antibody clone 29527 (antibody, V domains shown)
VH: B13 VH with E1Q, G30S, Y32S, W52G, P53A, L59Y, K65E, K102R, S103R, A105G
VL: B12 VL
notes: human IgG
Cell binding FON (Fold Over Negative) [3]: 414 fold over negative | Cell binding FON (Fold Over Negative) [4]: 142 fold over negative | luciferase induction over isotype control (fold change), Jurkat-hTIGIT + CHO-TCR-CD155 bioassay, 133 nM antibody [5]: 2.96 fold

B15: anti-TIGIT antibody clone 29520 (antibody, V domains shown)
VH: B12 VH with E1Q, G30R, S57L, K102R, S103L
VL: B12 VL
notes: as for B2
Cell binding FON (Fold Over Negative) [3]: 535 fold over negative | Cell binding FON (Fold Over Negative) [4]: 166 fold over negative | luciferase induction over isotype control (fold change), Jurkat-hTIGIT + CHO-TCR-CD155 bioassay, 133 nM antibody [5]: 2.52 fold

B16: anti-TIGIT antibody clone 31282 (antibody, V domains shown)
VH: QVQLVQSGAEVKKPGASVKVSCKASGYTFTSYYMHWVRQAPGQGLEWMGVIGPSGASTSYAQKFQGRVTLTRDTSTSTVYMELSSLRSEDTAVYYCARDHSDYWSGIMEVWGQGTTVTVSS
VL: EIVLTQSPGTLSLSPGERATLSCRASQSVRSSYLAWYQQKPGQAPRLLIYGASSRATGIPDRFSGSGSGTDFTLTISRLEPEDFAVYYCQQYFSPPWTFGGGTKVEIK
binding result [7]: binds

Source: patent US20220306733A1 (ITEOS BELGUIM, published 2022)
